# Reference: patent publication US20230279107A1 (ZHEJIANG RUIJIAMEI BIOTECH, published 2023)
# T1: CD19 expressed on Hela cells (stable cell line Hela-CD19) (human, UniProt P15391 20-556)
# T1 sequence (looked up): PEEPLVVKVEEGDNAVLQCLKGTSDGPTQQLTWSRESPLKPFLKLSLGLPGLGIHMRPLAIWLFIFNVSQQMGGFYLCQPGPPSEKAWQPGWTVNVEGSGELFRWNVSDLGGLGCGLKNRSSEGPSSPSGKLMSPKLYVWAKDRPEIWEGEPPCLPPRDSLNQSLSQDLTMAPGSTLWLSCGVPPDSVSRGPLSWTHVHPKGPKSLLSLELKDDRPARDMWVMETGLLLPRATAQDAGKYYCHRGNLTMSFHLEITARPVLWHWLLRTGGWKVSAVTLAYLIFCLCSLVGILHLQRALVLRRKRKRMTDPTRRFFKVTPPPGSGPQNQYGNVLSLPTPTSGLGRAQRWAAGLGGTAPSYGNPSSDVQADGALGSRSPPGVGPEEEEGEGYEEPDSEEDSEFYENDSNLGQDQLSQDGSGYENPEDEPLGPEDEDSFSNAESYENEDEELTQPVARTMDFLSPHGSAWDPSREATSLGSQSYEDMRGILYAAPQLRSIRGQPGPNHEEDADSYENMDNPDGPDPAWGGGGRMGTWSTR
# Target: T1, CD19 expressed on Hela cells (stable …)
# Test: cell-based or functional assay
binder,measurement,value
"Humanized CD19-4-1BB-CD3-CAR protein (CD8 leader sequence-CD19 scFv (VL-Linker-VH)-CD8 hinge-CD8 TM-41BB-CD3-zeta), expressed on DNT cells (other) DIQMTQSPSSLSASVGDRVTITCRASQDISKYLNWYQQKPGKAPKLLIYHTSRLHSGVPSRFSGSGSGTDFTLTISSLQPEDFATYYCQQGNTLPYTFGGGTKVEIKGSTSGSGKPGSGEGSTKGQVQLQESGPGLVKPSETLSLTCTVSGGSLPDYGVSWIRQPPGKGLEWIGVIWGSETTYYNSALKSRVTISVDTSKNQFSLKLSSVTAADTAVYYCAKHYYYGGSYAMDYWGQGTLVTVSSTTTPAPRPPTPAPTIASQPLSLRPEACRPAAGGAVHTRGLDFACDIYIWAPLAGTCGVLLLSLVITLYCKRGRKKLLYIFKQPFMRPVQTTQEEDGCSCRFPEEEEGGCELRVKFSRSADAPAYKQGQNQLYNELNLGRREEYDVLDKRRGRDPEMGGKPRRKNPQEGLYNELQKDKMAEAYSEIGMKGERRRGKGHDGLYQGLSTATKDTYDALHMQALPPR","specific killing of Hela-CD19 by CAR19-DNT cells on day 8 of culture (RTCA, effector-target ratio 2:1, 18 h)",98.5%
same,"specific killing of Hela-CD19 by CAR19-DNT cells on day 13 of culture (RTCA, effector-target ratio 2:1, 18 h)",98.1%
